# Experimental data published in patent US20250026813A1 (published 2025).
# Where a chain is given by its changes, count along the chain named.
# B1: IMPI-029 (antibody, V domains shown)
# VH: EVQLVESGGGLIQPGGSLRLSCAASGVTVSSNYMNWVRQAPGKGLEWVSVIYSGGSTYYADSVKGRFTISRDNSKNTLFLQMNSLRAEDSAVYYCARDLGPYGVDVWGQGTTVTVSS
# VL: DIQLTQSPSFLSASVGDRVTITCWASQGISSYLAWYQQKPGKAPKLLIYAASTLQSGVPSRFSGSGSGTEFTLTISSLQPEDFATYYCQELNSYPLTFGQGTRLEIK
# B2: IMPI-037 (antibody, V domains shown)
# VH: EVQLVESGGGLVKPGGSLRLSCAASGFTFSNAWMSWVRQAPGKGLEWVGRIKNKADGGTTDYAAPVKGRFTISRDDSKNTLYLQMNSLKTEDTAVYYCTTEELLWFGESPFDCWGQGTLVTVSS
# VL: B1 VL with S30N, A84T, E90Q, L91F, S93D, L96R, Q100P, R103K, L104V
# B3: IMPI-017 (antibody, V domains shown)
# VH: B1 VH with S25A, V27L, A40V, F79Y, S90T, P101T, Y102L, V104M
# VL: B1 VL with S31T, E90Q, P95L, L96P, R103K, L104V
# B4: IMPI-047 (antibody, V domains shown)
# VH: B1 VH with V27F, F79Y, A87T, S90T, G100V, P101A, V104M
# VL: B1 VL with L46V, E90L, Y94N, Q100G, R103K, L104V
# B5: IMPI-060 (antibody, V domains shown)
# VH: B1 VH with N35S, Y58F, F79Y, S90T, G100S, P101Y, V104M
# VL: B1 VL with R61K, E90Q, L96S, T97S, R103K
# B6: IMPI-056 (antibody, V domains shown)
# VH: B1 VH with V27L, G44K, Y58F, K64R
# VL: B1 VL with E90Q
# B7: IMPI-005 (antibody, V domains shown)
# VH: B1 VH with V27F
# VL: B1 VL
# B8: IMPI-059 (antibody, V domains shown)
# VH: EVQLVESGGGLIQPGGSLRLSCAASGFTVSSIYMSWVRQAPGKGLEWVSIIYSRGSTDYADSVKGRFTISRDISKNTLYLQMNSLRAEDTAVYYCARDGTMVRGVHAFDIWGQGTMVTVSS
# VL: DIQMTQSPPSLSASIGDRVTITCQASQDISNYLNWYQQKPGKAPKLLIYDASNLETGVPSRFSGSGSGTDFTLTISNLQPEDIVTYYCQQYDNLPSSFGQGTKLEIK
# B9: IMPI-004 (antibody, V domains shown)
# VH: QVQLVESGGGVVQPGRSLRLSCAASGFTFSSYGMHWVRQAPGKGLEWVAVIWYDGGNKYYADSVKGRFTISRDNSKNTLYLQMNSLRAEDTAVYYCARVNVLMGYGMDVWGQGTTVTVSS
# VL: EIVLTQSPGTLSLSPGDKATLSCRASQSIISSFLAWYQQKPGQAPRLLIYGASSRATGIPDRFSGSGSGTDFTLTISRLEPEDFAVYYCQQYGSSLTFGGGTKVEIK
# B10: IMPI-055 (antibody, V domains shown)
# VH: QVQLVQSGAEVKKPGASVKVSCKASGYTFTSYDINWVRQATGQGLEWMGWMNPNSGNTGYAQKFQGRVTMTRDTSINTAYMELSSLRSEDTAVYFCARGGRYCSDVTCYSGEPFDYWGQGTLVTVSS
# VL: EIMLTQSPDFQSVTPKEKVTITCRASQSIGSSLHWYQQKPDQSPKLLIKFASQSISGVPSRFSGSGSGTDFTLTINSLEAEDAAAYYCHQSSSLPHTFGPGTKVEIK
# B11: IMPI-054 (antibody, V domains shown)
# VH: EVQLVESGGGLIQPGGSLRLSCAASGLTVSSNYMSWVRQAPGKGLEWVSIIYSGGSTYYADSVKGRFTISRDNSKNTLYLQMNSLRAEDTAVYYCARLGGYYYYGMDVWGQGTTVTVSS
# VL: DIQMTQSPSSLSASVGERVTITCQASQDIRNYLNWYQKKPGKAPKLLIYDSSNLETGVPSRFSGSGSGTDFTFTISSLQPEDIATYYCQQYDNLPITFGQGTRLEIK
# B12: YANG-2111 (antibody, V domains shown)
# VH: GVQLVESGGGLVQPGRSLRLSCAASGFTFDDYALHWVRQVPGKGLEWVSSISWNSDDLGYADSVEGRFTISRDNAKNSLYLQMSSLRTEDTALYYCVKDTRAHYDILAGYRGLDSWGQGTLVTVSS
# VL: DIVMTQSPLSLPVTPGEPASISCRSTQSLLHSNGYNFLDWYLQKPGQSPQLLIYLGSNRASGVPDRFSGSGSGTDFSLKISRVEAEDIGIYYCIQGLQTPITFGQGTRLEIK
# B13: YANG-1302 (antibody, V domains shown)
# VH: QVQLVESGGGAVQPGRSLRLSCRASGFTFSSFGMNWVRQVPGKGLVWVAGIWYDGRNKYYADSVKGRFTISRENSKNMLYLQMNSLRAEDTAVYYCARDQDSGFDGNWFGPWGQGTMVTVSS
# VL: SYELTQPPSMSVSPGQTASITCSGDNLGDKYVCWYQQRPGQSPVMVIFQDSTRPSGIPERFSGSNSGNTATLTISGTQAMDEADYYCQAWDSNTAVFGGGTKLTVL
# B14: YANG-2302 (antibody, V domains shown)
# VH: QVQLVQSGAEVRKPGASVKVSCKVSGYTLPELAIHWVRQAPGKGLEWMGGFIPEDGDTIYAQKFQGRVTMTEDTSTDTAYMDLTSLRSEDAAVYYCTSGWAAPGYNYGMAVWGQGTTVTVSS
# VL: EVVLTQSPGTLSLSSGERATLSCRASQSVSSNYLAWYQKKPGQAPRLLIYGASSRVTGIPDRFGGSGSGTDFTLTISRLEPEDFAVYYCQQYDASPYSFGQGTKLDIK
# B15: YANG-2303 (antibody, V domains shown)
# VH: QVQLVQSGAEVKKPGASVRVSCKVSGYTLPELAIHWVRQAPGKGLEWMGGFDPEDGETIYAQKFQGRVIMTEDTSTDTAYMDLSSLRSEDTAVYYCVKTWAAPGYNYGLDTWGQGTTVTVSS
# VL: EIVLTQSPGILSLSPGESATLSCRASQSIASNYLAWFQQKPGQAPRLLIYGASSRAAGFPDRFSGSGSGTDFTLTIKRLEPEDSAVYYCQHYGSSPCSFGQGTNLEIK
# B16: YANG-2208 (antibody, V domains shown)
# VH: QIQLVQSGAEVRKPGASVRFSCKTSGYIFTNYYMVWVRQAPGQGLEWMGIIKPSGGNTIYAQKFQGRVTMTRDTSTNTVYMDLNNLRSEDTAVYFCARTGDRAFDVWGQGTMVTVSS
# VL: QSVLTQPPSMSAAPGQKVTISCSGNSSNIGNNFVSWYRQFPGTAPKLLIYDNNKRPSGIPDRFSGSKSGTSATLGITGLQTGDEADYYCGTWDSSLSAGVFGGGTKLTVL
# B17: YANG-2301 (antibody, V domains shown)
# VH: QVHLIQSGAEVKKPGASVKVSCKVSGYTLIEVSVHWVRQAPGKGLEWMGGFDPEAAETIYAQKFQGRVTMTEDTSTDTAYMDLSSLKSEDSAVYYCAIGPAVTGRNSGEYYYYYGMDVWGQGTTVTVAS
# VL: EIVMTQSPATLSVSPGERATLSCRASQSVNSNLAWYQQKPGQAPRLLIYAVSTRATGLPARFSGSGSGTEFTLTISSLQSEDFVVYYCHQYNNWPLTFGGGTKVEIK
# B18: YANG-2203 (antibody, V domains shown)
# VH: QVQLVQSGAEVKQPGASVKVSCRASGYALTSFYVHWVRQAPGQGLEWMGIIKPSGGDTIYAQNLQGRVTMTRDTSTNTFYVELSSLRSEDTALYYCAISGNTRAFEIWGQGTMVTVSL
# VL: QSVLTQPPSVSAAPGQKVTISCSGSSSNIGNNFVSWYQQLPGMVPKLLIYANNKRPSGIPDRFSGSRSGTSATLGITGLQTGDEADYYCGTWDSSRSAVLFGGGTKMTVL
# B19: YANG-2205 (antibody, V domains shown)
# VH: B16 VH with R12K, R19K, I28T, N31S, N84S, N85S, F95Y, Q109H, V113I
# VL: B16 VL with M10V, N25S, R38Q, S97G
# B20: YANG-2206 (antibody, V domains shown)
# VH: B16 VH with R12K, R19K, F20L, I28T, N31S, Y60F, N85S, F95Y, Q109H
# VL: B16 VL with M10V, N25S, F33Y, R38Q, S97G, L107V
# B21: YANG-2204 (antibody, V domains shown)
# VH: B16 VH with I2M, R12K, R19K, I28T, N84T, N85S, F95Y
# VL: B16 VL with M10V, N25S, F33Y, R38Q, F40L, S97G
# B22: YANG-2207 (antibody, V domains shown)
# VH: QMQLVQSGAEVKKPGASVKISCKTSGYTFTNYYMVWVRQAPGQGLEWMGIIKPSGGNTIYAQKFQGRVTMTRDTSTNTVYLDLSSLRSEDTAVYYCARTGNRAFDVWGHGTMVTVSS
# VL: B16 VL with M10V, N25S, R38Q, S97G
# B23: YANG-1301 (antibody, V domains shown)
# VH: QVQLVESGGGVVQPGRSLRLSCAASGFTFSSYGMHWVRQAPGKGLEWVAVIWYDGSNKFYADSVKGRFTISRDNSKNTLYLQMNSLKAEDTAVYYCARDTWIGESDTSWLDPWGQGTLVTVSS
# VL: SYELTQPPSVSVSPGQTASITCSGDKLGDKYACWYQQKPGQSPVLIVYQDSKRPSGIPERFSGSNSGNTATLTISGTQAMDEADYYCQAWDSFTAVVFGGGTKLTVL
# B24: YANG-1401 (antibody, V domains shown)
# VH: QVHLQESGPGLVKPSGTLSLTCAVSGGSFSQINWWSWVRQSPGKGLEWIGEIYHSGSTNYNPSLKSRVTMSVDKSKNQFSLALNSVTAADTAVYYCARGYYGDNWFDSWGQGTLVTVSS
# VL: DIQMTQSPSSLSASIGDRVTITCRASQGISNWLVWYQQKPEKAPKSLIYAASSLQSGVPSRFSGSGSGTDFTLTISSLHPEDFATYYCQQYSDYPLTFGGGTKVEIK
# B25: YANG-2107 (antibody, V domains shown)
# VH: QVQLQESGPGLVKPSGTLSLTCAVSGGSIRSSNWWIWVRQSPGKGLEWIGEIYHGGNTNYNPSLKSRVTLSVDKSKNQFSLKLSSVTAADTAVYYCARALYDIGGVFDIWGQGTMVTVSS
# VL: QSALTQPASVSGSPGQSISISCTGTSSDIGGYNYVSWYQQHPGKAPKLMIYDVSERPSGVSNRFSGSKSGNTASLTISGLQAEDEGDYYCCSYAANSNVVFGGGTKLSVL
# B26: YANG-2108 (antibody, V domains shown)
# VH: B25 VH with L11Q, S41P, N61S, T69S, L70I, Q78H, K82N, S84T, I103V
# VL: B25 VL with S19T, T25S, I29V
# Molecular target: full soluble spike trimer of SARS-CoV-2 virus (stabilised, in-house) (SARS-CoV-2, UniProt P0DTC2 14-1208; P10104 458-484)
# Assay: not given
row,Binder,IC50 [nM]
1,B1,3.31
2,B2,13.7
3,B3,3.15
4,B4,7.3
5,B5,5.26
6,B6,3.73
7,B7,13.1
8,B8,8.38
9,B9,4.09
10,B10,4.5
11,B11,11.6

# Molecular target: SARS-CoV-2 spike protein bearing furin mutation and truncation in retention sequence, on pseudovirus (SARS-CoV-2, UniProt P0DTC2 14-1255)
# Assay: cell-based or functional assay
row,Binder,pseudovirus neutralisation IC50 [nM]
1,B12,1.33
2,B13,0.23
3,B14,0.61
4,B15,0.48
5,B16,4.68
6,B17,0.53
7,B18,5.45
8,B19,3.35
9,B20,3.96
10,B21,3.3
11,B22,2.59
12,B23,0.52
13,B24,0.53
14,B25,0.3
15,B26,0.27
